Laboratory results taken from paper PMC10228544 (Science immunology, 2023).
Substitutions are numbered along the chain they refer to. In names and notes the source's numbering stands.

B1: FMC63^Y261A CAR on CAR T cells (receptor)
VH: EVKLQESGPGLVAPSQSLSVTCTVSGVSLPDYGVSWIRQPPRKGLEWLGVIWGSETTYYNSALKSRLTIIKDNSKSQVFLKMNSLQTDDTAIYYCAKHYYAGGSYAMDYWGQGTSVTVSS
VL: DIQMTQTTSSLSASLGDRVTISCRASQDISKYLNWYQQKPDGTVKLLIYHTSRLHSGVPSRFSGSGSGTDYSLTISNLEQEDIATYFCQQGNTLPYTFGGGTKLEIT
B2: SJ25C1^WT CAR (SJ25C1 scFv, CD28, CD3-zeta) on CAR T cells (receptor)
VH: EVKLQQSGAELVRPGSSVKISCKASGYAFSSYWMNWVKQRPGQGLEWIGQIYPGDGDTNYNGKFKGQATLTADKSSSTAYMQLSGLTSEDSAVYFCARKTISSVVDFYFDYWGQGTTVTVSS
VL: DIELTQSPKFMSTSVGDRVSVTCKASQNVGTNVAWYQQKPGQSPKPLIYSATYRNSGVPDRFTGSGSGTDFTLTITNVQSKDLADYFCQQYNRYPYTSGGGTKLEIK
B3: SJ25C1^I120V CAR on CAR T cells (receptor)
VH: B2 VH with I101V
VL: B2 VL
B4: SJ25C1^W52F CAR on CAR T cells (receptor)
VH: B2 VH with W33F
VL: B2 VL

target: Alexa-Fluor-488-conjugated recombinant hCD19-hFc (Homo sapiens, UniProt P15391, Alexa Fluor 488 conjugate); assay: flow cytometry on cells
Sequence (P15391 20-291): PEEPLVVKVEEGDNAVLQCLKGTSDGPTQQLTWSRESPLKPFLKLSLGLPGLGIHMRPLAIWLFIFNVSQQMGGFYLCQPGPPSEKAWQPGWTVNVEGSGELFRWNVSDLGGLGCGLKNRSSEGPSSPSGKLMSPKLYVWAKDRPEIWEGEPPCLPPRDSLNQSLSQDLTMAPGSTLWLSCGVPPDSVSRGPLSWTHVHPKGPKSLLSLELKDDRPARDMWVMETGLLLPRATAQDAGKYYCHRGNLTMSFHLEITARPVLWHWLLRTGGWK

Binding result, binds:
B1
B2
B3
B4
